Values quoted from earlier work, collected in publication PMC12378658.

What was measured:
[1] = target: TSLP:TSLPR complex (Homo sapiens) (UniProt Q969D9)
TSLPR (Homo sapiens) = TSLPR (Homo sapiens) (UniProt Q9HC73)
Sequence of UniProt Q9HC73 (Q9HC73 23-231): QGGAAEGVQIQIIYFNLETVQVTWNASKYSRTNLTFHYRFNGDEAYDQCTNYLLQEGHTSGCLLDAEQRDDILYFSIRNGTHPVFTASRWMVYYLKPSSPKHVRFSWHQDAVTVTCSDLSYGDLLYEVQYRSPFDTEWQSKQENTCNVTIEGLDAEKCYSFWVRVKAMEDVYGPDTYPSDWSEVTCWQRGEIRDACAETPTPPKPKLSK

Substance	Kd [1] [nM]	Kd (TSLPR (Homo sapiens)) [nM]
IL-7Rα (from UniProt P16871)	29	–
TSLP (from UniProt Q969D9)	–	32
